Laboratory results as given in patent US20220033516A1.

Biological target: recombinant human HER2 S310F ECD protein (human) (UniProt P04626)
Assay: SPR, Biacore 8K, 37 C, antibody captured by anti-human Fc on CM4, antigen as analyte, 1:1 model

Binder	Kd [nM]
MHR0009/CD3 (bispecific antibody, human IgG1, kappa, N297A) heavy 1: QSLEESGGRLVTPGTPLTLTCKASGFSLSSYAMIWVRQAPGKGLESIGMVYIHSGGTYYASWAKGRFTISKTSTTVDLKITSPTTEDTATYFCARYNGGGSGTDLWGPGTLVTVSSASTKGPSVFPLAPSSRSTSESTAALGCLVKDYFPEPVTVSWNSGALTSGVHTFPAVLQSSGLYSLSSVVTVPSSSLGTKTYTCNVDHKPSNTKVDKRVEPKSCDKTHTCPPCPAPELRRGPKVFLFPPKPKDTLMISRTPEVTCVVVDVSQEDPEVQFNWYVDGVEVHNAKTKPREEQFASTYRVVSVLTVLHQDWLNGKEYKCKVSNKGLPSSIEKTISKAKGQPREPQVYTLPPSREEMTKNQVSLTCLVKGFYPSDIAVEWESNGQPENNYKTTPPYLDSDGSFFLYSKLTVDKSRWQEGNVFSCSVMHEALHNHYTQESLSLSP light 1: DIVMTQTPSSVSEPVGGTVTIKCQASQSIYSYLSWYQQKPGQRPKLLIYYASTLASGVPSRFKGSGSGTQFTLTISDLECADAATYYCQNNYGSDSNIYGIAFGGGTKVEIKRTVAAPSVFIFPPSDEQLKSGTASVVCLLNNFYPREAKVQWKVDNALQSGNSQESVTEQDSKDCTYSLSSTLTLSKADYEKHKVYACEVTHQGLSSPVTKSFNRGEC heavy 2: QVQLVESGGGVVQPGGSLRLSCAASGFTFSNAWMHWVRQAPGKGLEWVAQIKDKSQNYATYVAESVKGRFTISRADSKNSIYLQMNSLKTEDTAVYYCRYVHYAAGYGVDIWGQGTTVTVSSASTKGPSVFPLAPSSRSTSESTAALGCLVKDYFPEPVTVSWNSGALTSGVHTFPAVLQSSGLYSLSSVVTVPSSSLGTKTYTCNVDHKPSNTKVDKRVEPKSCDKTHTCPPCPAPELRRGPKVFLFPPKPKDTLMISRTPEVTCVVVDVSQEDPEVQFNWYVDGVEVHNAKTKPREEQFASTYRVVSVLTVLHQDWLNGKEYKCKVSNKGLPSSIEKTISKAKGQPREPQVYTLPPSRKEMTKNQVSLTCLVKGFYPSDIAVEWESNGQPENNYKTTPPYLDSDGSFFLYSKLTVDKSRWQEGNVFSCSVMHEALHNHYTQKSLSLSP light 2: DIVMTQSPLSLPVTPGEPASISCRSSQPLVHSNRNTYLHWYQQKPGQAPRLLIYKVSNRFSGVPDRFSGSGSGTDFTLKISRVEAEDVGVYYCGQGTQVPYTFGQGTKLEIKRTVAAPSVFIFPPSDEQLKSGTASVVCLLNNFYPREAKVQWKVDNALQSGNSQESVTEQDSKDSTYSLSSTLTLSKADYEKHKVYACEVTHQGLSSPVTKSFNRGEC	36.2
MHR0016/CD3 (bispecific antibody, human IgG1, kappa, N297A) heavy 1: QSVEESGGRLVTPGTPLTLTCTVSGFSLSSNAISWVRQAPGKGLEYIGIISSSGSTYYANWAKGRFTISKTSSTTVDLKMTSATTEDTATYFCARGVDIYGHAYATPYGMDLWGPGTLVTVSSASTKGPSVFPLAPSSRSTSESTAALGCLVKDYFPEPVTVSWNSGALTSGVHTFPAVLQSSGLYSLSSVVTVPSSSLGTKTYTCNVDHKPSNTKVDKRVEPKSCDKTHTCPPCPAPELRRGPKVFLFPPKPKDTLMISRTPEVTCVVVDVSQEDPEVQFNWYVDGVEVHNAKTKPREEQFASTYRVVSVLTVLHQDWLNGKEYKCKVSNKGLPSSIEKTISKAKGQPREPQVYTLPPSREEMTKNQVSLTCLVKGFYPSDIAVEWESNGQPENNYKTTPPYLDSDGSFFLYSKLTVDKSRWQEGNVFSCSVMHEALHNHYTQESLSLSP light 1: EVVMTQTPASVSEPVGGTVTIKCQASQSISSYLSWYQQKPGQPPKLLIYYSSTLASGVPSRFKGSGSGTEFTLTISDLECADAATYYCQSNYGSSSSSYEDTFGGGTKVEIKRTVAAPSVFIFPPSDEQLKSGTASVVCLLNNFYPREAKVQWKVDNALQSGNSQESVTEQDSKDCTYSLSSTLTLSKADYEKHKVYACEVTHQGLSSPVTKSFNRGEC heavy 2: QVQLVESGGGVVQPGGSLRLSCAASGFTFSNAWMHWVRQAPGKGLEWVAQIKDKSQNYATYVAESVKGRFTISRADSKNSIYLQMNSLKTEDTAVYYCRYVHYAAGYGVDIWGQGTTVTVSSASTKGPSVFPLAPSSRSTSESTAALGCLVKDYFPEPVTVSWNSGALTSGVHTFPAVLQSSGLYSLSSVVTVPSSSLGTKTYTCNVDHKPSNTKVDKRVEPKSCDKTHTCPPCPAPELRRGPKVFLFPPKPKDTLMISRTPEVTCVVVDVSQEDPEVQFNWYVDGVEVHNAKTKPREEQFASTYRVVSVLTVLHQDWLNGKEYKCKVSNKGLPSSIEKTISKAKGQPREPQVYTLPPSRKEMTKNQVSLTCLVKGFYPSDIAVEWESNGQPENNYKTTPPYLDSDGSFFLYSKLTVDKSRWQEGNVFSCSVMHEALHNHYTQKSLSLSP light 2: DIVMTQSPLSLPVTPGEPASISCRSSQPLVHSNRNTYLHWYQQKPGQAPRLLIYKVSNRFSGVPDRFSGSGSGTDFTLKISRVEAEDVGVYYCGQGTQVPYTFGQGTKLEIKRTVAAPSVFIFPPSDEQLKSGTASVVCLLNNFYPREAKVQWKVDNALQSGNSQESVTEQDSKDSTYSLSSTLTLSKADYEKHKVYACEVTHQGLSSPVTKSFNRGEC	22.3

The next binders have a lower Kd than those just listed; values first:

Kd [nM]	Binder
13.9	MHR0019/CD3 (bispecific antibody, human IgG1, kappa, N297A) heavy 1: QSVEESGGRLVAPGTPLTLTCTVSGIDLSSDAMAWVRQAPGKGLEYIGIISSSGSTYYASWAKGRFTISKTSTTVDLKITSPTTEDTATYFCARGVDIYGHAYATPYGMDLWGPGTLVTVSSASTKGPSVFPLAPSSRSTSESTAALGCLVKDYFPEPVTVSWNSGALTSGVHTFPAVLQSSGLYSLSSVVTVPSSSLGTKTYTCNVDHKPSNTKVDKRVEPKSCDKTHTCPPCPAPELRRGPKVFLFPPKPKDTLMISRTPEVTCVVVDVSQEDPEVQFNWYVDGVEVHNAKTKPREEQFASTYRVVSVLTVLHQDWLNGKEYKCKVSNKGLPSSIEKTISKAKGQPREPQVYTLPPSREEMTKNQVSLTCLVKGFYPSDIAVEWESNGQPENNYKTTPPYLDSDGSFFLYSKLTVDKSRWQEGNVFSCSVMHEALHNHYTQESLSLSP light 1: EVVMTQTPASVSEPVGGTVTIKCQASQSISSYLSWYQQKPGQPPKLLIYYASTLASGVPSRFKGSGSGTEFTLTISDLECDDAATYYCQSNYGSSSSSYEDTFGGGTKVEIKRTVAAPSVFIFPPSDEQLKSGTASVVCLLNNFYPREAKVQWKVDNALQSGNSQESVTEQDSKDCTYSLSSTLTLSKADYEKHKVYACEVTHQGLSSPVTKSFNRGEC heavy 2: QVQLVESGGGVVQPGGSLRLSCAASGFTFSNAWMHWVRQAPGKGLEWVAQIKDKSQNYATYVAESVKGRFTISRADSKNSIYLQMNSLKTEDTAVYYCRYVHYAAGYGVDIWGQGTTVTVSSASTKGPSVFPLAPSSRSTSESTAALGCLVKDYFPEPVTVSWNSGALTSGVHTFPAVLQSSGLYSLSSVVTVPSSSLGTKTYTCNVDHKPSNTKVDKRVEPKSCDKTHTCPPCPAPELRRGPKVFLFPPKPKDTLMISRTPEVTCVVVDVSQEDPEVQFNWYVDGVEVHNAKTKPREEQFASTYRVVSVLTVLHQDWLNGKEYKCKVSNKGLPSSIEKTISKAKGQPREPQVYTLPPSRKEMTKNQVSLTCLVKGFYPSDIAVEWESNGQPENNYKTTPPYLDSDGSFFLYSKLTVDKSRWQEGNVFSCSVMHEALHNHYTQKSLSLSP light 2: DIVMTQSPLSLPVTPGEPASISCRSSQPLVHSNRNTYLHWYQQKPGQAPRLLIYKVSNRFSGVPDRFSGSGSGTDFTLKISRVEAEDVGVYYCGQGTQVPYTFGQGTKLEIKRTVAAPSVFIFPPSDEQLKSGTASVVCLLNNFYPREAKVQWKVDNALQSGNSQESVTEQDSKDSTYSLSSTLTLSKADYEKHKVYACEVTHQGLSSPVTKSFNRGEC
10.8	MHR0010/CD3 (bispecific antibody, human IgG1, kappa, N297A) heavy 1: QSVEESGGRLVTPGTPLTLTCTVSGFSLSRYAMSWVRQAPGKGLEWIGIIVSSSGSTYYATWATGRFTISKTSTTVDLKITSPTTEDTATYFCARIRGYDNIGYGYPWFYYFNLWGPGTLVTVSSASTKGPSVFPLAPSSRSTSESTAALGCLVKDYFPEPVTVSWNSGALTSGVHTFPAVLQSSGLYSLSSVVTVPSSSLGTKTYTCNVDHKPSNTKVDKRVEPKSCDKTHTCPPCPAPELRRGPKVFLFPPKPKDTLMISRTPEVTCVVVDVSQEDPEVQFNWYVDGVEVHNAKTKPREEQFASTYRVVSVLTVLHQDWLNGKEYKCKVSNKGLPSSIEKTISKAKGQPREPQVYTLPPSREEMTKNQVSLTCLVKGFYPSDIAVEWESNGQPENNYKTTPPYLDSDGSFFLYSKLTVDKSRWQEGNVFSCSVMHEALHNHYTQESLSLSP light 1: DVVMTQTPASVEAAVGGTVTIKCQASQSISSYLAWYQQKPGQPPKLLIYDASDLASGVPSRFKGSGSGTQFTLTISDLECADAATYYCQSYYYSSSSSYGFAFGGGTKVEIKRTVAAPSVFIFPPSDEQLKSGTASVVCLLNNFYPREAKVQWKVDNALQSGNSQESVTEQDSKDCTYSLSSTLTLSKADYEKHKVYACEVTHQGLSSPVTKSFNRGEC heavy 2: QVQLVESGGGVVQPGGSLRLSCAASGFTFSNAWMHWVRQAPGKGLEWVAQIKDKSQNYATYVAESVKGRFTISRADSKNSIYLQMNSLKTEDTAVYYCRYVHYAAGYGVDIWGQGTTVTVSSASTKGPSVFPLAPSSRSTSESTAALGCLVKDYFPEPVTVSWNSGALTSGVHTFPAVLQSSGLYSLSSVVTVPSSSLGTKTYTCNVDHKPSNTKVDKRVEPKSCDKTHTCPPCPAPELRRGPKVFLFPPKPKDTLMISRTPEVTCVVVDVSQEDPEVQFNWYVDGVEVHNAKTKPREEQFASTYRVVSVLTVLHQDWLNGKEYKCKVSNKGLPSSIEKTISKAKGQPREPQVYTLPPSRKEMTKNQVSLTCLVKGFYPSDIAVEWESNGQPENNYKTTPPYLDSDGSFFLYSKLTVDKSRWQEGNVFSCSVMHEALHNHYTQKSLSLSP light 2: DIVMTQSPLSLPVTPGEPASISCRSSQPLVHSNRNTYLHWYQQKPGQAPRLLIYKVSNRFSGVPDRFSGSGSGTDFTLKISRVEAEDVGVYYCGQGTQVPYTFGQGTKLEIKRTVAAPSVFIFPPSDEQLKSGTASVVCLLNNFYPREAKVQWKVDNALQSGNSQESVTEQDSKDSTYSLSSTLTLSKADYEKHKVYACEVTHQGLSSPVTKSFNRGEC
